T1: CynoCD40-His protein (Acro, Cat. No.: CD0-C52H6) (cynomolgus monkey, UniProt P25942 21-193 (human entry))
T1 construct: Bought protein; also called cynomolgus monkey CD40 antigen; not shown: His tag
T1 chain: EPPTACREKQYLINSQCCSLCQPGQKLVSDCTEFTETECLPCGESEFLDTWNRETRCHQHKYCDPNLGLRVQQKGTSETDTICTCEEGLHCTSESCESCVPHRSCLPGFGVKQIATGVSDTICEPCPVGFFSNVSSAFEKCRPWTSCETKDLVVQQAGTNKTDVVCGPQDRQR


Key:
[1] = biological target: T2, human CD40 (hCD40), full length, on cells (human, UniProt P25942 21-277); experiment: cell-based or functional assay
[2] = biological target: T2, human CD40 (hCD40), full length, on …; experiment: flow cytometry (MFI) on 293T-hCD40-NFκB cells, PE anti-human IgG detection
[3] = biological target: T1, CynoCD40-His protein (Acro, Cat. No.: …); experiment: BLI (Fortebio Octet RED96e), antibody captured on AHC sensor, antigen 1.56-100 nM, 1:1 model
Method: (§1) The affinity of humanized anti-CD40 antibodies to an hCD40-His protein (Acro, Cat. No.: CD0-H5228) and a CynoCD40-His protein (Acro, Cat. No.: CD0-C52H6) was detected by a ForteBio molecular interaction system. Firstly, an AHC biosensor (Fortebio, Cat. No.: 18-5060) was activated, and then immersed in an anti-CD40 antibody solution at a final concentration of 5 μg/mL to capture the antibodies. Serially 2-fold diluted hCD40-His protein and CynoCD40-His protein in a final concentration range of 1.56 nM-100 nM were then […] the AHC biosensor. The response signals were detected in real time on a Fortebio molecular interaction system (Fortebio Octet RED96e) to give association and dissociation curves. After the completion of dissociation in each cycle, the AHC biosensor was regenerated for the next capture; the procedure was repeated until the affinity of the different antibodies for CD40 was determined. The resulting data were analyzed by Fortebio Data Analysis 11.0 software using a 1:1 (Langmuir) binding model to determine the Kₐ (Kₒₙ) and Kd (Kdis) values, and the dissociation constant KD was calculated by KD=Kd/Kₐ. See www.fortebio.com for more detailed detection procedures and related information.

[4] = biological target: T3, hCD40-His protein (Acro, Cat. No.: CD0-H5228) (human, UniProt P25942 21-193); experiment: as above
T3 construct: Bought protein; also called human CD40 antigen; not shown: His tag
Method: as §1

[5] = biological target: T2, human CD40 (hCD40), full length, on …; experiment: cell-based or functional assay; remark: listed apart in the source
hCD40-mFc = biological target: T4, hCD40-mFc (human); experiment: flow cytometry, blocking of hCD40-mFc (2 µg/mL) binding to CHO-K1-hCD40L cells
T4 construct: Prepared in-house in CHO cells; also called human CD40 recombinant protein containing a mouse antibody heavy chain Fc; Human CD40-mFc
Method: A CHO-K1-hCD40L cell suspension and a CHO-K1-CynoCD40L cell suspension at a cell concentration of 3×10⁵ cells/mL were separately added into a 96-well U-bottom plate at 100 μL/well. An hCD40-mFc protein at a final concentration of 2 μg/mL (prepared in-house, SEQ ID NO: 64) or a cynoCD40-mFc protein at a final concentration of 2 μg/mL (prepared in-house, SEQ ID NO: 65) was added correspondingly, before serially 2-fold diluted anti-CD40 antibodies in a final concentration range of 312.5 ng/ml-40000 ng/ml were added. The mixture was mixed well, and then incubated at 4° C. for 1 h. The cells were washed with PBS containing 2% of FBS, and then a PE-conjugated goat anti-mouse IgG (H+L) antibody (Abcam, Cat. No.: ab97041) diluted at a volume ratio of 1:500 was added, and the mixture was incubated at 4° C. for 0.5 h. The cells were washed with PBS containing 2% of […], and then resuspended in PBS containing 2% of FBS. The fluorescence signals were detected on a flow cytometer (Sartorius IQue3). The activity of anti-CD40 antibodies to block the binding of CHO-K1-hCD40L cells to an hCD40-mFc protein and CHO-K1-cynoCD40L cells to a cynoCD40-mFc protein was analyzed by the mean fluorescence intensity (MFI) of staining, and the IC₅₀ value was calculated by GraphPad Prism software.

[6] = biological target: T2, human CD40 (hCD40), full length, on …; experiment: flow cytometry (MFI) on CHO-K1-hCD40 cells, PE anti-human IgG detection
[7] = biological target: T2, human CD40 (hCD40), full length, on …; experiment: cell-based or functional assay; remark: listed apart in the source

| MFI value (CD95 on Ramos cells), Fc crosslinking with anti-human IgG Fcγ antibody, 1 µg/mL antibody [1] [MFI] | MFI value (CD95 on Ramos cells), Fc crosslinking with anti-human IgG Fcγ antibody, 10 µg/mL antibody [1] [MFI] | EC50 (read off the curve) [2] [ng/mL] | Kd [3] [pM] | koff [3] [s⁻¹] | kon [3] [M⁻¹ s⁻¹] | Kd [4] [pM] | koff [4] [s⁻¹] | kon [4] [M⁻¹ s⁻¹] | IC50 (read off the curve); NF-κB luciferase reporter (RLU), 293T-hCD40-NFκB cells co-cultured 1:1 with CHO-K1-hCD40L cells [5] [ng/mL] | IC50 (hCD40-mFc) [pM] | EC50 [6] [pM] | IC50, inhibition of Ramos cell apoptosis induced by CD40L and IL-4 [7] [pM] | Inhibition, % of Ramos cell apoptosis at 0.064 ng/L (so in the source) [7] [%] | Inhibition, % of Ramos cell apoptosis at 0.32 ng/L (so in the source) [7] [%] | Inhibition, % of Ramos cell apoptosis at 1.6 ng/L (so in the source) [7] [%] | Inhibition, % of Ramos cell apoptosis at 8 ng/L (so in the source) [7] [%] | Inhibition, % of Ramos cell apoptosis at 40 ng/L (so in the source) [7] [%] | Inhibition, % of Ramos cell apoptosis at 200 ng/L (so in the source) [7] [%] | Inhibition, % of Ramos cell apoptosis at 1000 ng/L (so in the source) [7] [%] | Binder |
| --- | --- | --- | --- | --- | --- | --- | --- | --- | --- | --- | --- | --- | --- | --- | --- | --- | --- | --- | --- | --- |
| 14100 | 12300 | ~3 | 243 | 0.000484 | 1.99e+06 | 255 | 0.000414 | 1.63e+06 | ~2 | 38400 |  |  |  |  |  |  |  |  |  | hzA01-3.3 (antibody, human IgG4 S228P, kappa, V domains shown, Humanized A01; also called hzA01L3 + hzA01H3) VH: QVQLKESGPGLVKPSETLSLTCTVSGFSLPTSGVHWIRQPPGKGLEWIGVIWAGGDTNYNSALKSRVTISKDNSKSQVFLKLSSVTAADTAVYYCLGHGHFDVWGQGTLVTVSS VL: DVVMTQSPLSLPVTLGQPASISCRSSQSLVHSSGNTYLQWYLQRPGQSPGLLIYKVSNRFSGVPDRFSGSGSGTDFTLKISRVEAEDVGVYYCSQTTHVPWTFGQGTKLEIKR |
|  |  |  | 576 | 0.000923 | 1.6e+06 | 808 | 0.00101 | 1.25e+06 | ~0.3 |  |  |  |  |  |  |  |  |  |  | hzA01-1.1 (antibody, human IgG4 S228P, kappa, V domains shown, Humanized A01; also called hzA01L1 + hzA01H1) VH: QVQLQESGPGLVKPSETLSLTCTVSGFSLPTSGVHWIRQPPGKGLEWIGVIWAGGDTNYNPSLKSRVTISKDNSKNQVFLKLSSVTAADTAVYYCLGHGHFDVWGQGTLVTVSS VL: DIQMTQSPSSLSASVGDRVTITCRSSQSLVHSSGNTYLQWYQQKPGKAPGLLIYKVSNRFSGVPSRFSGSGSGTDFTLTISSLQPEDFATYYCSQTTHVPWTFGQGTKVEIKR |
|  |  |  | 1500 | 0.00282 | 1.88e+06 | 1760 | 0.00255 | 1.45e+06 | ~0.6 |  |  |  |  |  |  |  |  |  |  | hzA01-2.1 (antibody, human IgG4 S228P, kappa, V domains shown, Humanized A01; also called hzA01L2 + hzA01H1) VH: QVQLQESGPGLVKPSETLSLTCTVSGFSLPTSGVHWIRQPPGKGLEWIGVIWAGGDTNYNPSLKSRVTISKDNSKNQVFLKLSSVTAADTAVYYCLGHGHFDVWGQGTLVTVSS VL: EIVLTQSPGTLSLSPGERATLSCRSSQSLVHSSGNTYLQWYQQKPGQAPRLLIYKVSNRFSGIPDRFSGSGSGTDFTLTISRLEPEDFAVYYCSQTTHVPWTFGQGTKVEIKR |
|  |  | ~2 | 365 | 0.000686 | 1.88e+06 | 366 | 0.000601 | 1.64e+06 | ~0.6 | 22800 |  |  |  |  |  |  |  |  |  | hzA01-3.1 (antibody, human IgG4 S228P, kappa, V domains shown, Humanized A01; also called hzA01L3 + hzA01H1) VH: QVQLQESGPGLVKPSETLSLTCTVSGFSLPTSGVHWIRQPPGKGLEWIGVIWAGGDTNYNPSLKSRVTISKDNSKNQVFLKLSSVTAADTAVYYCLGHGHFDVWGQGTLVTVSS VL: DVVMTQSPLSLPVTLGQPASISCRSSQSLVHSSGNTYLQWYLQRPGQSPGLLIYKVSNRFSGVPDRFSGSGSGTDFTLKISRVEAEDVGVYYCSQTTHVPWTFGQGTKLEIKR |
|  |  | ~2 | 262 | 0.000532 | 2.03e+06 | 264 | 0.000454 | 1.72e+06 | ~0.6 | 19800 |  |  |  |  |  |  |  |  |  | hzA01-3.4 (antibody, human IgG4 S228P, kappa, V domains shown, Humanized A01; also called hzA01L3 + hzA01H4) VH: QVQLKESGPGLVKPSETLSLTCTVSGFSLPTSGVHWIRQPPGKGLEWIGVIWAGGDTNYNSALMSRVTISKDNSKSQVFLKMSSVTAADTAVYYCLGHGHFDVWGQGTLVTVSS VL: DVVMTQSPLSLPVTLGQPASISCRSSQSLVHSSGNTYLQWYLQRPGQSPGLLIYKVSNRFSGVPDRFSGSGSGTDFTLKISRVEAEDVGVYYCSQTTHVPWTFGQGTKLEIKR |
|  |  |  |  |  |  |  |  |  |  |  | 390 | 4.99 | 5 | 20 | 85 | 98 | 97 | 97 | 94 | Chi-A02 (antibody, human IgG4 S228P, kappa, V domains shown, also called chimeric A02) VH: QVQLKESGPGLVAPSQSLSITCTVSGFSLTSSGVHWVRQPPGKGLEWLGVIWAGGDTSYNSALMSRLSISKDNSKSQVFLKMNSLQTDDTAMYYCLGHGHLDVWGAGTTVTVSS VL: DVVMTQTPLSLPVSLGDQASISCRSSQSLVHSSGNTYLHWYLQKPGQSPGLLIYKVSNRFSGVPDRFSGSGSGTDFTLKISRVEAEDLGVYFCSQTTHVPWTFGGGTKLEIKR |
|  |  |  |  |  |  | 2510 | 0.00147 | 586000 |  |  | 1360 | 134 | -8 | -9 | -10 | 18 | 66 | 90 | 98 | Chi-A03 (antibody, human IgG4 S228P, kappa, V domains shown, also called chimeric A03) VH: DVQLQESGPDRVKPSQSLSLTCTVTGYSITSDYSWHWIRQFPGNKLEWMGYIYSSGHTYYNPSLKSRISFTRDTSKNQFFLQLNSVTTEDTATYYCAIYYYGRSYFDNWGRGTTLTVSS VL: QIVLTQSPAIMSASPGEKVTLTCSASSSVNYMHWYQQKSGTSPKRWIYDTSKLASGVPARFSGSGSGTSYSLTISSMEAEDAATYYCQQWSSNPLTFGAGTKLELKR |
| 136000 | 135000 |  |  |  |  |  |  |  |  |  |  |  |  |  |  |  |  |  |  | CP-870893 (antibody, human IgG2, kappa, V domains shown) VH: not shown VL: DIQMTQSPSSVSASVGDRVTITCRASQGIYSWLAWYQQKPGKAPNLLIYTASTLQSGVPSRFSGSGSGTDFTLTISSLQPEDFATYYCQQANIFPLTFGGGTKVEIKR |

Source: patent publication US20240383994A1 (CHIA TAI TIANQING PHARMACEUTICAL GROUP, published 2024)
